The test system of series [1] is human lung cancer PC9-GR (gefitinib-resistant cell) xenograft tumor. The experiment in a line: Assay 3: PC9-GR xenograft efficacy of patritumab-ADC. The settings on record: 3 mg/kg i.v./qw*4w. The class given is in vivo, NU/NU mice. The source says: NU/NU mice, 5-6 weeks old, 16 mice
(§1) The assay was terminated on day 28 after the administration.

Series [2] concerns human colon cancer SW620 xenograft tumor. The experiment in a line: Assay 15: SW620 xenograft efficacy. In kind it is in vivo, NU/NU mice. The conditions noted are these: 7 mg/kg i.v./single administration. The source says: (§2) NU/NU mice, 5-6 weeks old, 18 mice
The assay was terminated on day 26 after the administration.

Series [3] concerns human colorectal cancer DiFi xenograft tumor. The series is described as follows: Assay 16: DiFi xenograft efficacy of patritumab-ADC. The class given is in vivo, NU/NU mice. The conditions noted are these: 10 mg/kg i.v./qw*3w (as in Table 29).
Description: as §2, §1

The nature of series [4]: Assay 8: stability of linker-drug compounds. In kind it is physicochemical. The settings on record: high temperature, high humidity, illumination or 0.5% BSA-PBS; compared with Deruxtecan. As for the experimental part:
Different linker-drug compounds such as Deruxtecan and JSSW-001 were studied under high temperature (40°C, 60°C), high humidity (25°C/75% RH and 25°C/92.5% RH), illumination (illuminance 4500Lux, near-UV energy 90µw/cm^2), or 0.5% BSA-PBS conditions. Samples were collected at different times after exposure to these conditions, and the concentration changes of the linker-drug compounds in the samples were detected using the LC-MS/MS method.

Series [5] has as its target T1, EGFR on MDA-MB-468 cells (human, UniProt P00533 25-1210).
T1 construct: whole, on cells; also called target antigen; HER1
The experiment in a line: flow cytometry (FACS) on MDA-MB-468 cells, pH 6.0; end of the range tied to SWY2111 by Table 1.

The target of series [6] is T1, EGFR on MDA-MB-468 cells. The series is described as follows: flow cytometry (FACS) on MDA-MB-468 cells, pH 7.4; end of the range tied to SWY2111 by Table 1.
The target in series [7] is T1, EGFR on MDA-MB-468 cells. The experiment in a line: flow cytometry (FACS) on MDA-MB-468 cells, antibody diluted in PBS pH 6.0, FITC anti-human Fc secondary.
Series [8] addresses T1, EGFR on MDA-MB-468 cells. The series is described as follows: flow cytometry (FACS) on MDA-MB-468 cells, antibody diluted in PBS pH 7.4, FITC anti-human Fc secondary.
The target of series [9] is T1, EGFR on MDA-MB-468 cells. The experiment in a line: flow cytometry (FACS) on MDA-MB-468 cells, pH 6.0; end of the range tied to SWY2112 by Table 1.
For series [10], the target named is T1, EGFR on MDA-MB-468 cells. The experiment in a line: flow cytometry (FACS) on MDA-MB-468 cells, pH 6.0.
The target of series [11] is T1, EGFR on MDA-MB-468 cells. The experiment in a line: flow cytometry (FACS) on MDA-MB-468 cells, pH 7.4; end of the range tied to SWY2113 by Table 1.

Numbering of substitutions follows the chain as printed. Marks after values point to notes of the source that are not given here. Starred links: 1 amine or outer side, 2 acyl side, 3 side chain; linkers in the order of their positions; H or OH if unused. Non-standard residues stand in square brackets, D forms with d. Residues, ends and D or L forms follow the SMILES beside them. *: point of attachment. Exatecan = CC[C@@]1(O)C(=O)OCc2c1cc1n(c2=O)Cc2c-1nc1cc(F)c(C)c3c1c2[C@@H](N*)CC3; Hexanoyl(6-maleimido) = O=C1C=CC(=O)N1CCCCCC(=O)*; X1 = C[C@@H](OCN[*:1])C(=O)[*:2]

Turning to “patritumab-DXD ADC (DAR=7.3): patritumab conjugated with commercially available Deruxtecan [reference compound]”, the entries for the “TGI (%) Day 28” value in series [1] and in [3] were 59.5% and 54.0%, respectively. The “Tumor Volume” value was 373.4 ± 102.8** mm^3 in series [1] (28 days), 461.3±278.1*** mm^3 in [2] (21 days) and 512.5 ± 470.8* mm^3 in series [3] (28 days). The “TGI (%) Day 21” value in series [2] is 73.2%.
`CC[C@@]1(O)C(=O)OCc2c1cc1n(c2=O)Cc2c-1nc1cc(F)c(C)c3c1c2[C@@H](NC(=O)[C@@H](C)OCNC(=O)CNC(=O)[C@H](Cc1ccccc1)NC(=O)CNC(=O)CNC(=O)CCCCCN1C(=O)C=CC1=O)CC3` [JSSW-001, N-((2R,10S)-10-benzyl-1-(((1S,9S)-9-ethyl-5-fluoro-9-hydroxy-4-methyl-10,13-dioxo-2,3,9,10,13,15-hexahydro-1H,12H-benzo[de]pyrano[3',4':6,7]indolizino[1,2-b]quinolin-1-yl)amino)-2-methyl-1,6,9,12,15-pentaoxo-3-oxa-5,8,11,14-tetraazahexadecan-16-yl)-6-(2,5-dioxo-2,5-dihydro-1H-pyrrol-1-yl)hexanamide] ({Hexanoyl(6-maleimido)}-GGFG[X1]-Exatecan): the “stability of linker-drug compound” value in series [4] was “better stability”.

B1: SWY2111 (antibody, human IgG1, kappa, V domains shown)
VH: QVQLQESGPGLVKPSETLSLTCTVSGFSLSDYDVHWVRQAPGKGLEWLGVIWSGGNTDYNTPFTSRLTISVDTSKNQFSLKLSSVTAADTAVYYCARALDDYDYEFAYWGQGTLVTVSS
VL: EIVLTQSPDFQSVTPKEKVTITCRASQSIGTNIHWYQQKPDQSPKLLIKYASESISGIPSRFSGSGSGTDFTLTINSLEAEDAATYYCQQNNEWPTSFGQGTKLEIKR
notes: also called EGFR antibody SWY2111
As for B1, the “fold change of affinity compared to SWY2110 at pH=6.0” value with EGFR on MDA-MB-468 cells [5] lay in the range of 1.2 to 1.3 times. The “fold decrease of affinity compared to SWY2110 at pH=7.4” value with EGFR on MDA-MB-468 cells [6] was found to be 3 times. The concentration for a half-maximal effect (EC50) in the series with EGFR on MDA-MB-468 cells [7] turned out to be 0.6 nM; in the series with EGFR on MDA-MB-468 cells [8], 1.45 nM.

B2: SWY2112 (antibody, human IgG1, kappa, V domains shown)
VH: B1 VH with D31E
VL: B1 VL
notes: also called EGFR antibody SWY2112
As for B2, the “fold change of affinity compared to SWY2110 at pH=6.0” value in the series with EGFR on MDA-MB-468 cells [9] is 1.2 to 1.3 times. Also, the EC50 was determined as 0.67 nM with EGFR on MDA-MB-468 cells [7] and 2.35 nM with EGFR on MDA-MB-468 cells [8].

B3: SWY2113 (antibody, human IgG1, kappa, V domains shown)
VH: B1 VH with D31H
VL: B1 VL
notes: also called EGFR antibody SWY2113
With B3, the “fold decrease of affinity compared to SWY2110 at pH=6.0” value with EGFR on MDA-MB-468 cells [10] worked out at 6.6 times. For the same molecule, the “fold decrease of affinity compared to SWY2110 at pH=7.4” value in the series with EGFR on MDA-MB-468 cells [11] was 3 to 9.7 times. In addition, the values for the EC50 with EGFR on MDA-MB-468 cells [7] and with EGFR on MDA-MB-468 cells [8] were 3.39 nM and 4.76 nM, respectively.

These data come from patent publication EP4714469A1, “PHARMACEUTICAL COMPOSITION COMPRISING ANTIBODY-DRUG CONJUGATE” (CSPC Megalith Biopharmaceutical Co., Ltd., priority 2023, dated 2024).
